Blank lines part the entries; values can stand above or below the molecule they belong to.
Legend:
[1] = molecular target: murine IFNAR-1 on murine cells (L-929, NFS-01) (murine) (UniProt P33896); experiment: cell-based or functional assay
[2] = molecular target: human IFNAR-1 on human cells (HeLa, WISH, A549) (human) (UniProt P17181); experiment: cell-based or functional assay
human IFNAR1-ECD = molecular target: T1, human IFNAR1-ECD (human, UniProt P17181 28-436); experiment: SPR, IFNAR-1-ECD captured by antibody
T1 construct: extracellular domain; Purified ECD captured on the chip by antibody DB2 and cross-linked with AA3; also called purified human IFNAR-1
T1 sequence (looked up): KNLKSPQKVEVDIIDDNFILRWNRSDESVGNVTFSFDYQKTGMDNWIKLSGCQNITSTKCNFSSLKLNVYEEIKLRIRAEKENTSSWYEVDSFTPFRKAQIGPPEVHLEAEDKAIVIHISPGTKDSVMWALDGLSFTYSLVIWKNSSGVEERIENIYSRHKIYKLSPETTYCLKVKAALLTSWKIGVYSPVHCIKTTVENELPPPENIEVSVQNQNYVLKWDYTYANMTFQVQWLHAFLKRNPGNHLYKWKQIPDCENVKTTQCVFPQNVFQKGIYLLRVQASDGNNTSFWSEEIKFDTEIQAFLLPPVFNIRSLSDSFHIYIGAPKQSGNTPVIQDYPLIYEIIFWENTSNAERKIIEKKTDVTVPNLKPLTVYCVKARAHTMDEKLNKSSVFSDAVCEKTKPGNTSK
Procedure: Binding to purified human IFNAR-1 and IFNAR-2 is measured with the Protein Interaction Array system (Bio-Rad) according to published methods. A solution of 0.005% Tween20 in PBS pH 7.4 was used as running buffer at a flow rate of 30 μl/min. […] Thereafter, five of the six channels were reacted with IFNAR1-ECD or IFNAR2-ECD (180 μl at a concentration of 0.5 μM), leaving one channel free as reference. This was followed by cross-linking a second antibody. […] Data were analyzed with the BIAeval 4.1 software, using, the standard Langmuir models for fitting kinetic data. Dissociation constants KD were determined from the rate constants according to:

murine IFNAR-1 on murine cells (L-929, NFS-01) (murine), sequence (P33896 27-590): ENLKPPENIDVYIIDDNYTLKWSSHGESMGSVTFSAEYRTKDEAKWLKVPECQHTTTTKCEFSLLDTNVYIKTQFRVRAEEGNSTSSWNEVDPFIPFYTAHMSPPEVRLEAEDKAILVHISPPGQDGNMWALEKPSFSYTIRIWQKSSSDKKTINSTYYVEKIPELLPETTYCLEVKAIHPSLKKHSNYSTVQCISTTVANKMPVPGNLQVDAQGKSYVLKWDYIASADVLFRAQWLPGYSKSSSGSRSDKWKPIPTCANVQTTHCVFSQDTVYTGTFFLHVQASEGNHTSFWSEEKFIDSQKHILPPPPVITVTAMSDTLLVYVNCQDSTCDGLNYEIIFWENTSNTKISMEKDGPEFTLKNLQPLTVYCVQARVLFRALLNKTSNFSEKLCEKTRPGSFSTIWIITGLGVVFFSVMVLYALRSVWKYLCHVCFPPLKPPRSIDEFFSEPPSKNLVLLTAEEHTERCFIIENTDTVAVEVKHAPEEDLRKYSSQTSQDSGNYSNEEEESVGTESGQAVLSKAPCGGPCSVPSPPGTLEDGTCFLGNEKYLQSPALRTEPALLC

Molecule: IFN-α2/α1[K120E/K121E] (from UniProt A0A087WWS6 25-190) (ligand)
Antiproliferative Activity (% of native), Murine (NFS-01) [1]: < 0.0001%
Antiviral Activity (% of Native), Murine (L-929) [1]: < 0.04%
Antiproliferative Activity (% of native), Human (WISH) [2]: < 0.05%
Antiviral Activity (% of Native), Human (HeLa) [2]: < 0.08%
Antiviral Activity (% of Native), Human (Wish) [2]: 0.006%

Molecule: IFN-α2/α1[R124E] (from UniProt A0A087WWS6 25-190) (ligand)
Antiviral Activity (% of Native), Murine (L-929) [1]: 100%
Antiviral Activity (% of Native), Human (HeLa) [2]: 20%

Molecule: IFN-α2/α1[Y89A] (from UniProt A0A087WWS6 25-190) (ligand)
Antiviral Activity (% of Native), Murine (L-929) [1]: 38%
Antiviral Activity (% of Native), Human (HeLa) [2]: 69%
Antiviral Activity (% of Native), Human (Wish) [2]: 96%

Molecule: IFN-α2/α1[C85A/Y89A] (from UniProt A0A087WWS6 25-190) (ligand)
Antiviral Activity (% of Native), Human (HeLa) [2]: 143%
Antiviral Activity (% of Native), Human (Wish) [2]: 183%

Molecule: IFN-α2b-[Arg120Glu/Lys121Glu] (from UniProt P01563 24-188) (ligand)
Antiproliferative Activity (% of Native EC50), Human (Wish) [2]: < 0.02%
Antiviral Activity (% of Native EC50), Human (HeLa) [2]: < 1.3%
Antiviral Activity (% of Native EC50), Human (Wish) [2]: < 0.002%

Molecule: IFN-α2/α1[C85A] (from UniProt A0A087WWS6 25-190) (ligand)
Antiviral Activity (% of Native), Murine (L-929) [1]: 144%
Antiviral Activity (% of Native), Human (HeLa) [2]: 141%

Molecule: IFN-α2/α1[K121E] (from UniProt A0A087WWS6 25-190) (ligand)
Antiviral Activity (% of Native), Murine (L-929) [1]: 0.5%
Antiviral Activity (% of Native), Human (HeLa) [2]: 8%

Molecule: IFN-α2/α1[K120A/K121A] (from UniProt A0A087WWS6 25-190) (ligand)
Antiproliferative Activity (% of native), Murine (NFS-01) [1]: 8%
Antiviral Activity (% of Native), Murine (L-929) [1]: 33%
Antiproliferative Activity (% of native), Human (WISH) [2]: 0.5%
Antiviral Activity (% of Native), Human (HeLa) [2]: 8.3%
Antiviral Activity (% of Native), Human (Wish) [2]: 13.8%

B1: human-derived chimeric IFN-α2/α1 (native) (ligand)
chain: CDLPQTHSLGSRRTLMLLAQMRKISLFSCLKDRHDFGFPQEEFGNQFQKAETIPVLHEMIQQIFNLFTTKDSSAAWDEDLLDKFCTELYQQLNDLEACVMQEERVGETPLMNADSILAVKKYFRRITLYLTEKKYSPCAWEVVRAEIMRSLSLSTNLQERLRRKE
notes: the text itself names F64; E. coli; also called IFN-αA/D; Hu-alpha2/1
fold stronger affinity than IFN-α2 (human IFNAR1-ECD): ~5 fold
ratio of KD to that of IFN-α2 (human IFNAR1-ECD): ~0.2

Other lines, results leading:

Antiviral Activity (% of Native EC50), Human (Wish) [2]: 0.03%
Molecule: IFN-α2 NLYY-117A (N65A/L80A/Y85A/Y89A/L117A) (from UniProt P01563 24-188) (ligand)

Antiviral Activity (% of Native), Murine (L-929) [1]: 100%
Antiviral Activity (% of Native), Human (HeLa) [2]: 54%
Antiviral Activity (% of Native), Human (Wish) [2]: 204%
Molecule: IFN-α2/α1[L80A/C85A/Y89A] (from UniProt A0A087WWS6 25-190) (ligand)

Antiviral Activity (% of Native), Murine (L-929) [1]: < 0.01%
Antiproliferative Activity (% of native), Human (WISH) [2]: < 0.2%
Antiviral Activity (% of Native), Human (HeLa) [2]: < 0.04%
Antiviral Activity (% of Native), Human (Wish) [2]: < 0.1%
Molecule: IFN-α2/α1[K120E/K121E/R124E] (from UniProt A0A087WWS6 25-190) (ligand)

Antiviral Activity (% of Native), Murine (L-929) [1]: 55%
Antiviral activity (relative %), IFN-α2/α1, Human HeLa (partial results) [2]: 63%
Molecule: IFN-α2/α1[N65A/L80A/C85A/Y89A] (from UniProt A0A087WWS6 25-190) (ligand)

Antiproliferative Activity (% of native), Murine (NFS-01) [1]: < 0.0005%
Antiviral Activity (% of Native), Murine (L-929) [1]: < 0.04%
Antiproliferative Activity (% of native), Human (WISH) [2]: < 0.02%
Antiviral Activity (% of Native), Human (HeLa) [2]: < 0.04%
Antiviral Activity (% of Native), Human (Wish) [2]: < 0.02%
Molecule: IFN-α2/α1[K120E] (from UniProt A0A087WWS6 25-190) (ligand)

Antiproliferative Activity (% of Native EC50), Human (Wish) [2]: < 0.001%
Antiviral Activity (% of Native EC50), Human (HeLa) [2]: < 0.002%
Antiviral Activity (% of Native EC50), Human (Wish) [2]: < 0.001%
Molecule: IFN-α2 NLYY-120A (N65A/L80A/Y85A/Y89A/R120A) (from UniProt P01563 24-188) (ligand)

Antiproliferative Activity (% of native), Murine (NFS-01) [1]: 0.03%
Antiviral Activity (% of Native), Murine (L-929) [1]: 2%
Antiproliferative Activity (% of native), Human (WISH) [2]: 0.7%
Antiviral Activity (% of Native), Human (HeLa) [2]: 2%
Antiviral Activity (% of Native), Human (Wish) [2]: 9.7%
Molecule: IFN-α2/α1[K120A] (from UniProt A0A087WWS6 25-190) (ligand)

Antiproliferative Activity, Human (Wish; %) [2]: 0.05%
Antiviral Activity (% of Native EC50), Human (HeLa) [2]: 2.3%
Molecule: IFN-α2b[R120A] (from UniProt P01563 24-188) (ligand)

Antiviral Activity (% of Native), Murine (L-929) [1]: 31%
Antiviral Activity (% of native), Human; *Assay on human A549 cells [2]: 19%
Molecule: IFN-α2/α1[L80A] (from UniProt A0A087WWS6 25-190) (ligand)

Antiviral Activity (% of Native), Human (HeLa) [2]: 4.2%
Antiviral Activity (% of Native), Human (Wish) [2]: 11%
Molecule: IFN-α2/α1 5-site alanine substitution mutant (F64/N65/L80/C85/Y89) (from UniProt A0A087WWS6 25-190) (ligand)

— patent US20110224407A1 (published 2011)
